Experiment [1] concerns the target T1, FcγRIIA H (UniProt P12318 34-217, limits assumed).
T1 construct: also called FcgRIIA H
T1 sequence (looked up): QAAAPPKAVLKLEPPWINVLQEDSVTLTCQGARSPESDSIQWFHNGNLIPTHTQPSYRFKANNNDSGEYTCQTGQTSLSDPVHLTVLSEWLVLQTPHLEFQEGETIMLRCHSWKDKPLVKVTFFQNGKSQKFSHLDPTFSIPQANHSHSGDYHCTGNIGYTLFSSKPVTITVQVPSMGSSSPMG
Briefly: fold change of the Table 12 affinities (arrow not given). As for the experimental part:
(§1) Fcγ receptor binding assays were carried out as described (Shields, et al. (2001) J. Biol. Chem. 276:6591-6604) with minor modifications. High protein binding 96-well plates (Corning Costar) were coated with 100 μL per well of Fcγ receptor solutions in PBS at the following concentrations: 1 μg/mL for both FcγRI (R&D Systems) and FcγRIIa (Pichia pastoris produced), 2 μg/mL for FcγRIIb (P. pastoris produced), 0.8 μg/mL for FcγRIIIa-F158, and 0.4 μg/mL for FcγRIIIa-V158 (both P. pastoris produced). All Pichia pastoris produced receptors were expressed and purified as described (Li, et al. (2006) Nature Biotechnology 24:210-215). Monomeric antibody samples added to the FcγRI plate were serially diluted in assay diluent (1×PBS, 1% BSA, and 0.05% Tween20) and 100 μL, per well was added to the plate. Antibody samples prepared for the remaining receptors require a one hour dimerization step with half molar ratio of goat anti-human IgG F(ab′)2 F(ab′)2 that is conjugated with alkaline phosphatase for detection. […] FcγRI bound sample antibody was detected using the same goat anti-human IgG F(ab′)2 alkaline phosphatase conjugated F(ab′)2. Sample antibody binding was quantified by measuring excitation at 340 nm and emission at 465 nm after 18 hour incubation with SuperPhos, 4-MUP Fluorescence AP Substrate Detection System (Virolabs).

The target in a further experiment is T2, wild-type human PCSK9 (human, UniProt Q8NBP7 31-692, limits assumed).
T2 construct: also called PCSK9 antigen
Briefly: SPR (Biacore T100), average KD of the six YGLY25267 runs. How it is done: The CM5 chip was immobilized on all flowcells with mouse anti-human IgG (Fc specific) according to the Biacore Human Antibody Capture Kit (Cat# BR-1008-39) to ˜7000RU. Anti-PCSK9 antibodies were captured on the chip to ˜500RU followed by analyte injections of wild-type human PCSK9 from 64.1 nM to 2.0 nM. Each flowcell was regenerated between each analyte injection with 3M MgCl for 40 seconds at 10 uL/min. Data was analyzed with Biacore T100 Evaluation Software using the 1:1 binding model using at least 5 point concentration range sensogram.

Experiment [2] deals with T3, FcγRIIb (Pichia pastoris produced) (UniProt P31994 43-217, limits assumed).
T3 construct: also called FcgRIIB; CD32B
T3 sequence (looked up): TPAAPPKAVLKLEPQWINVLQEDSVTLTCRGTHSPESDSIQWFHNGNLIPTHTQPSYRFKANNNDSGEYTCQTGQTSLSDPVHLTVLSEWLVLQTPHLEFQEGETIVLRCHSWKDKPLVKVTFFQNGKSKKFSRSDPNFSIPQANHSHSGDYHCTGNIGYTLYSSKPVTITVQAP
Briefly: FcγR affinity assay 'as described in Example 7', n = 3; printed as Affinity (nM) ± STDEV. How it is done:
(§2) Fcγ receptor binding assays were carried out as described (Shields, et al. (2001) J. Biol. Chem. 276:6591-6604) with minor modifications. High protein binding 96-well plates (Corning Costar) were coated with 100 μL per well of Fcγ receptor solutions in PBS at the following concentrations: 1 μg/mL for both FcγRI (R&D Systems) and FcγRIIa (Pichia pastoris produced), 2 μg/mL for FcγRIIb (P. pastoris produced), 0.8 μg/mL for FcγRIIIa-F158, and 0.4 μg/mL for FcγRIIIa-V158 (both P. pastoris produced). All Pichia pastoris produced receptors were expressed and purified as described (Li, et al. (2006) Nature Biotechnology 24:210-215). Monomeric antibody samples added to the FcγRI plate were serially diluted in assay diluent (1×PBS, 1% BSA, and 0.05% Tween20) and 100 μL, per well was added to the plate. Antibody samples prepared for the remaining receptors require a one hour dimerization step with half molar ratio of goat anti-human IgG F(ab′)2 F(ab′)2 that is conjugated with alkaline phosphatase for detection. These dimerized F(ab′)2/antibody complexes were also serially diluted and 100 μL per well were added to the remaining receptor plates and all plates were incubated for one hour at room temperature. FcγRI bound sample antibody was detected using the same goat anti-human IgG F(ab′)2 alkaline phosphatase conjugated F(ab′)2. Sample antibody binding was quantified by measuring excitation at 340 nm and emission at 465 nm after 18 hour incubation with SuperPhos, 4-MUP Fluorescence AP Substrate Detection System (Virolabs).

Experiment [3] has as its target T3, FcγRIIb (Pichia pastoris produced). In words: ELISA-type plate assay, FcγR coated, antibody dimerized with AP-conjugated goat anti-human IgG F(ab')2, RFU readout. How it is done: as §2
The target in experiment [4] is T4, FcγRIIIa-F158 (Pichia pastoris produced) (UniProt P08637 17-208, limits assumed).
T4 construct: also called FcγRIIIA LF; FcgRIIIA LF
T4 sequence (P08637 17-208 limits assumed): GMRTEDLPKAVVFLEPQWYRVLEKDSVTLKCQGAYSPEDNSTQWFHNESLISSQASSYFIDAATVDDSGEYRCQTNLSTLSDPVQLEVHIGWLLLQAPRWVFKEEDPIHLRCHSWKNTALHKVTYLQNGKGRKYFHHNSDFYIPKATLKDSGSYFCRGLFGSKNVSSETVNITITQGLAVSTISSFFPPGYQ
Briefly: fold change of the Table 12 affinities (arrow not given); Table 13 fold change computed from the Table 12 affinities. How it is done: as §1

For experiment [5], the target named is T5, FcγRIIIa-V158 (Pichia pastoris produced) (UniProt P08637 17-208, limits assumed).
T5 construct: also called FcγRIIIA LV; FcgRIIIA LV
T5 sequence (P08637 17-208 F176V limits assumed): as the sequence (P08637 17-208 limits assumed) above, with F160V counted along it
In words: fold change of the Table 12 affinities; Table 13 fold change computed from the Table 12 affinities. How it is done:
as §1

In experiment [6] the target is T3, FcγRIIb (Pichia pastoris produced). In words: ELISA-type plate assay, FcγR coated, antibody dimerized with AP-conjugated goat anti-human IgG F(ab')2, RFU readout. How it is done:
as §2
This is another data set of the same source.

Experiment [7] shares this target. In words: fold change of the Table 12 affinities. As for the experimental part:
as §2

Experiment [8] has the same target. In words: ELISA-type plate assay, FcγR coated, antibody dimerized with AP-conjugated goat anti-human IgG F(ab')2, RFU readout. As for the experimental part: as §2
The source holds these as a separate data set.

The target in experiment [9] is T5, FcγRIIIa-V158 (Pichia pastoris produced). Briefly: FcγR affinity assay 'as described in Example 7', n = 3; printed as Affinity (nM) ± STDEV; footnote: values > ~5000 nM mean a poor binder; Table 12 affinity (nM) assay, n = 3; value outside the tested concentration range. As for the experimental part:
as §1

For experiment [10], the target named is T4, FcγRIIIa-F158 (Pichia pastoris produced). The experiment is described as above. How it is done: as §1
Experiment [11] deals with T1, FcγRIIA H. In words: FcγR affinity assay 'as described in Example 7', n = 3; printed as Affinity (nM) ± STDEV; footnote: values > ~5000 nM mean a poor binder. As for the experimental part: as §2
Experiment [12] deals with T3, FcγRIIb (Pichia pastoris produced). Briefly: ELISA-type plate assay, FcγR coated, antibody dimerized with AP-conjugated goat anti-human IgG F(ab')2, RFU readout. As for the experimental part: as §2
This is another data set of the same source.

Experiment [13] concerns the target T4, FcγRIIIa-F158 (Pichia pastoris produced). Briefly: fold change of the Table 12 affinities. As for the experimental part: as §2
Experiment [14] deals with T1, FcγRIIA H. In words: fold change of the Table 12 affinities. As for the experimental part:
as §2

For experiment [15], the target named is T5, FcγRIIIa-V158 (Pichia pastoris produced). Briefly: FcγR affinity assay 'as described in Example 7', n = 3; printed as Affinity (nM) ± STDEV; footnote: values > ~5000 nM mean a poor binder. How it is done:
as §2

For experiment [16], the target named is T4, FcγRIIIa-F158 (Pichia pastoris produced). Described as above. How it is done: as §2

Values joined by “and” are separate entries in the source; they are usually repeats but may differ in a detail not shown here. Equal entries are not always repeated. Where two headings read alike, the source gives them in different places.

B1: 1F11 IgG1 F243A/V264A/S267E/L328F quadruple mutein anti-PCSK9 antibody (antibody)
heavy: QVQLVQSGAEVKKPGASVKVSCKVSGYTFTDYYMNWVRQAPGQGLEWIGDINPNNGGAIYNQKFKGRATLTVDKSTSTAYMELRSLRSDDTAVYYCTSGIITEIAEDFWGQGTLVTVSSASTKGPSVFPLAPSSKSTSGGTAALGCLVKDYFPEPVTVSWNSGALTSGVHTFPAVLQSSGLYSLSSVVTVPSSSLGTQTYICNVNHKPSNTKVDKKVEPKSCDKTHTCPPCPAPELLGGPSVFLAPPKPKDTLMISRTPEVTCVVADVEHEDPEVKFNWYVDGVEVHNAKTKPREEQYNSTYRVVSVLTVLHQDWLNGKEYKCKVSNKAFPAPIEKTISKAKGQPREPQVYTLPPSRDELTKNQVSLTCLVKGFYPSDIAVEWESNGQPENNYKTTPPVLDSDGSFFLYSKLTVDKSRWQQGNVFSCSVMHEALHNHYTQKSLSLSPG
light: DIQMTQSPSSLSASVGDRVTITCKASQNVGTNVVWYQQKPGKAPKALIHSASYRYSGVPSRFSGSGSGTDFTLTISSLQPEDFATYYCQQYKTYPYTFGQGTKVEIKRTVAAPSVFIFPPSDEQLKSGTASVVCLLNNFYPREAKVQWKVDNALQSGNSQESVTEQDSKDSTYSLSSTLTLSKADYEKHKVYACEVTHQGLSSPVTKSFNRGEC
notes: Produced in Pichia pastoris GFI6.0; The strains give the same polypeptide with different N-glycan profiles; also called 1F11 QM; YGLY25265
With B1, the “fold change in affinity vs 1F11 IgG1 GS5.0” value with FcγRIIA H [1] is 9 fold; in experiment [4], 103 fold; in experiment [5], more than 10000 fold; in [7], 19 fold. Further, the Kd with wild-type human PCSK9 was 0.00364 µM; in experiment [2] it was 0.029 µM; in experiment [9], more than 5 µM; in experiment [10] it was more than 5 µM; with FcγRIIA H [11] it was 8.15 µM. Also, the concentration for a half-maximal effect (EC50 (read off the curve)) in [3] was approximately 0.05 µg/mL; in [6] it was approximately 0.04 µg/mL; in experiment [8], approximately 0.03 µg/mL; in experiment [12], ~0.04 µg/mL and ~0.1 µg/mL.

B2: human IgG1 Fc ("hFc") QM (F243A/V264A/S267E/L328F quadruple mutein Fc domain) (other)
chain: AEPKSCDKTHTCPPCPAPELLGGPSVFLAPPKPKDTLMISRTPEVTCVVADVEHEDPEVKFNWYVDGVEVHNAKTKPREEQYNSTYRVVSVLTVLHQDWLNGKEYKCKVSNKAFPAPIEKTISKAKGQPREPQVYTLPPSRDELTKNQVSLTCLVKGFYPSDIAVEWESNGQPENNYKTTPPVLDSDGSFFLYSKLTVDKSRWQQGNVFSCSVMHEALHNHYTQKSLSLSPGK
notes: Fc fragment of human IgG1 with hinge, produced in Pichia pastoris GFI6.0 host YGLY22834; also called YGLY28722; YGLY28725
Regarding B2, the Kd stood at 0.028 µM in experiment [2], 6.4 µM in experiment [15], 30.6 µM in experiment [16] and 9.13 µM in the experiment with FcγRIIA H [11]. For the same molecule, the “fold change in affinity vs hFcDM” value was 100 fold in experiment [7], 9 fold in experiment [13] and 1 fold in the experiment with FcγRIIA H [14].
